System: T1, purified recombinant His-tagged C12ORF48 protein
T1 sequence: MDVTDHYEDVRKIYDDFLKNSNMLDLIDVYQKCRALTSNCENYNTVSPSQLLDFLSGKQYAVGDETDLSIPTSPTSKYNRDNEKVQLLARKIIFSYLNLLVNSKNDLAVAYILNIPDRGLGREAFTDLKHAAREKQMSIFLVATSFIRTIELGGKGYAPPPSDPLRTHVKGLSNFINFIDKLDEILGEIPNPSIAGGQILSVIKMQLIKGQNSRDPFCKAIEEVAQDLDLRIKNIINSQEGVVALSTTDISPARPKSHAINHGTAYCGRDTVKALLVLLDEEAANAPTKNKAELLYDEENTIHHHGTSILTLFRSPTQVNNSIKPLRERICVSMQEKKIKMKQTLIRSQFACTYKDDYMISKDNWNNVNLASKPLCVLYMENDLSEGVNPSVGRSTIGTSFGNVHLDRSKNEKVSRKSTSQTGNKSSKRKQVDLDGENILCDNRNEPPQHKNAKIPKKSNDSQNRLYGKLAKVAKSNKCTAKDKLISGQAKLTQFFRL

recombinant human PARP1 (Alexis)
PARP1 automodification, incorporation of [32P] NAD+, SDS-PAGE autoradiography: PARP1 automodification was strongly enhanced in the presence of C12ORF48 protein compared with in the absence of C12ORF48 protein

From patent publication US20110263679
